Source: US20120329716A1 (UNIVERSITY OF MANITOBA, published 2012)

T1: Purified human recombinant renin (human, UniProt P00797 67-406)
T1 sequence (looked up): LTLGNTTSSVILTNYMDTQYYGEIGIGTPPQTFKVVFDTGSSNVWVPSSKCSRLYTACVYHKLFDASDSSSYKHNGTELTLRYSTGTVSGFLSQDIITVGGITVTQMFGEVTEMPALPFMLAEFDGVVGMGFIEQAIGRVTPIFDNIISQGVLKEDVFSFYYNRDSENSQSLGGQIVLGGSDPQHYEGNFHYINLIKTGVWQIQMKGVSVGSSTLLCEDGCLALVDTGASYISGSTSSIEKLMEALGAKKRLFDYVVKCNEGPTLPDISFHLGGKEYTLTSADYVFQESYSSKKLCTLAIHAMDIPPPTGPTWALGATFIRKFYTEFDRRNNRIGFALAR

T2: Renin substrate 1 (Arg-Glu(EDANS)-Ile-His-Pro-Phe-His-Leu-Val-Ile-His-Thr-Lys(dabcyl)-Arg)
T2 chain: REIHPFHLVIHTKR

B1: Purified human recombinant renin (protein)
chain: T1 sequence (looked up)

These binders were tested against T1, Purified human recombinant renin (assay: cell-based or functional assay).

Row | Binder | RENIN INHIBITION % [%]
1 | NFLAGPSD [SEQ ID NO. 25] | 6.73
2 | AHPVAIN [SEQ ID NO. 22] | 43.5
3 | ADMFPF [SEQ ID NO. 23] | 76.2
4 | HPGAG [SEQ ID NO. 16] | 21.2
5 | YAGVSLI [SEQ ID NO. 21] | 36
6 | YKKSVSSESDPF [SEQ ID NO. 26] | 32.4
7 | RAAP [SEQ ID NO. 14] | 15.4
8 | WLP [SEQ ID NO. 13] | 4.85
9 | RSPD [SEQ ID NO. 17] | 57.5
10 | SNILEAA [SEQ ID NO. 20] | 24
11 | WPHT [SEQ ID NO. 18] | 9.3
12 | WMP [SEQ ID NO. 15] | 43.4
13 | TNPFPF [SEQ ID NO. 24] | 28
14 | YPRE [SEQ ID NO. 19] | 22.2

Molecular target: T2, Renin substrate 1 …
Experiment: not given

Row | Binder | Michaelis-Menten constant (Km) in the absence of peptide fractions [µM] | Michaelis-Menten constant (Km) in the presence of peptide fraction T4 | Michaelis-Menten constant (Km) in the presence of peptide fraction T5
15 | B1 | 3.8 | increased to 6.3 and 6.1 µM, respectively | increased to 6.3 and 6.1 µM, respectively
